{"source": "patent US20100047228A1", "binders": {"B1": {"name": "α2-macroglobulin (protein, UniProt P01023 24-1474, looked up)", "chain": "SVSGKPQYMVLVPSLLHTETTEKGCVLLSYLNETVTVSASLESVRGNRSLFTDLEAENDVLHCVAFAVPKSSSNEEVMFLTVQVKGPTQEFKKRTTVMVKNEDSLVFVQTDKSIYKPGQTVKFRVVSMDENFHPLNELIPLVYIQDPKGNRIAQWQSFQLEGGLKQFSFPLSSEPFQGSYKVVVQKKSGGRTEHPFTVEEFVLPKFEVQVTVPKIITILEEEMNVSVCGLYTYGKPVPGHVTVSICRKYSDASDCHGEDSQAFCEKFSGQLNSHGCFYQQVKTKVFQLKRKEYEMKLHTEAQIQEEGTVVELTGRQSSEITRTITKLSFVKVDSHFRQGIPFFGQVRLVDGKGVPIPNKVIFIRGNEANYYSNATTDEHGLVQFSINTTNVMGTSLTVRVNYKDRSPCYGYQWVSEEHEEAHHTAYLVFSPSKSFVHLEPMSHELPCGHTQTVQAHYILNGGTLLGLKKLSFYYLIMAKGGIVRTGTHGLLVKQEDMKGHFSISIPVKSDIAPVARLLIYAVLPTGDVIGDSAKYDVENCLANKVDLSFSPSQSLPASHAHLRVTAAPQSVCALRAVDQSVLLMKPDAELSASSVYNLLPEKDLTGFPGPLNDQDNEDCINRHNVYINGITYTPVSSTNEKDMYSFLEDMGLKAFTNSKIRKPKMCPQLQQYEMHGPEGLRVGFYESDVMGRGHARLVHVEEPHTETVRKYFPETWIWDLVVVNSAGVAEVGVTVPDTITEWKAGAFCLSEDAGLGISSTASLRAFQPFFVELTMPYSVIRGEAFTLKATVLNYLPKCIRVSVQLEASPAFLAVPVEKEQAPHCICANGRQTVSWAVTPKSLGNVNFTVSAEALESQELCGTEVPSVPEHGRKDTVIKPLLVEPEGLEKETTFNSLLCPSGGEVSEELSLKLPPNVVEESARASVSVLGDILGSAMQNTQNLLQMPYGCGEQNMVLFAPNIYVLDYLNETQQLTPEIKSKAIGYLNTGYQRQLNYKHYDGSYSTFGERYGRNQGNTWLTAFVLKTFAQARAYIFIDEAHITQALIWLSQRQKDNGCFRSSGSLLNNAIKGGVEDEVTLSAYITIALLEIPLTVTHPVVRNALFCLESAWKTAQEGDHGSHVYTKALLAYAFALAGNQDKRKEVLKSLNEEAVKKDNSVHWERPQKPKAPVGHFYEPQAPSAEVEMTSYVLLAYLTAQPAPTSEDLTSATNIVKWITKQQNAQGGFSSTQDTVVALHALSKYGAATFTRTGKAAQVTIQSSGTFSSKFQVDNNNRLLLQQVSLPELPGEYSMKVTGEGCVYLQTSLKYNILPEKEEFPFALGVQTLPQTCDEPKAHTSFQISLSVSYTGSRSASNMAIVDVKMVSGFIPLKPTVKMLERSNHVSRTEVSSNHVLIYLDKVSNQTLSLFFTVLQDVPVRDLKPAIVKVYDYYETDEFAIAEYNAPCSKDLGNA"}, "B2": {"name": "α2-antiplasmin (protein, UniProt P08697 40-491, looked up)", "chain": "NQEQVSPLTLLKLGNQEPGGQTALKSPPGVCSRDPTPEQTHRLARAMMAFTADLFSLVAQTSTCPNLILSPLSVALALSHLALGAQNHTLQRLQQVLHAGSGPCLPHLLSRLCQDLGPGAFRLAARMYLQKGFPIKEDFLEQSEQLFGAKPVSLTGKQEDDLANINQWVKEATEGKIQEFLSGLPEDTVLLLLNAIHFQGFWRNKFDPSLTQRDSFHLDEQFTVPVEMMQARTYPLRWFLLEQPEIQVAHFPFKNNMSFVVLVPTHFEWNVSQVLANLSWDTLHPPLVWERPTKVRLPKLYLKHQMDLVATLSQLGLQELFQAPDLRGISEQSLVVSGVQHQSTLELSEVGVEAAAATSIAMSRMSLSSFSVNRPFLFFIFEDTTGLPLFVGSVRNPNPSAPRELKEQQDSPGNKDFLQSLKGFPRGDKLFGPDLKLVPPMEEDYPQFGSPK"}}, "assay_in_all_cases": "cell-based or functional assay", "key": {"plasmin (human)": {"target": "plasmin (human) (UniProt P00747)", "sequence (P00747 20-580, chain 1 of 2)": "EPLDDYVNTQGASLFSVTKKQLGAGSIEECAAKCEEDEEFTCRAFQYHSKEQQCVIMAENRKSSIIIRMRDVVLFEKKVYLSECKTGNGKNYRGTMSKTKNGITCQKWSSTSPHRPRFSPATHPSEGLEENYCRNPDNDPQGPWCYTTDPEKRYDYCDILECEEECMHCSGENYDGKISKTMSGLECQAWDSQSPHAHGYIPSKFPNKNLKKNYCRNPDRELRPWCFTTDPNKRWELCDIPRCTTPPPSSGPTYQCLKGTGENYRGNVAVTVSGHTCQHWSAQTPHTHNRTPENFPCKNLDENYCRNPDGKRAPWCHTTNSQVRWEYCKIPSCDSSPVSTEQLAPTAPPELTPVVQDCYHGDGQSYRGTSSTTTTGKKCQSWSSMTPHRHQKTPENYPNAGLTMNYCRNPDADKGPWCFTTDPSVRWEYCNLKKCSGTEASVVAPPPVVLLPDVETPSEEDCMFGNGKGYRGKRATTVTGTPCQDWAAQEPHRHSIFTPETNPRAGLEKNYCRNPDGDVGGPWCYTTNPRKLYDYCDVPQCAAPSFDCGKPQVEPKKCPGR", "sequence (P00747 581-810, chain 2 of 2)": "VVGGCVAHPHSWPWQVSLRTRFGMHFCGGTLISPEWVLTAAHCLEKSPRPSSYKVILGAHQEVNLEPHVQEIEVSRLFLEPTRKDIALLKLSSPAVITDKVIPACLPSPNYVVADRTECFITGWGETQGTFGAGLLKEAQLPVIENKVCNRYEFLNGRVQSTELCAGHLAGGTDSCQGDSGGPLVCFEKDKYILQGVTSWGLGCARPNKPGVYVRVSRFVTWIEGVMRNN"}, "delta-plasmin (human)": {"target": "delta-plasmin (human) (UniProt P00747)", "sequence (P00747 other isoform, or with tags, fused parts or gaps mutant limits assumed)": "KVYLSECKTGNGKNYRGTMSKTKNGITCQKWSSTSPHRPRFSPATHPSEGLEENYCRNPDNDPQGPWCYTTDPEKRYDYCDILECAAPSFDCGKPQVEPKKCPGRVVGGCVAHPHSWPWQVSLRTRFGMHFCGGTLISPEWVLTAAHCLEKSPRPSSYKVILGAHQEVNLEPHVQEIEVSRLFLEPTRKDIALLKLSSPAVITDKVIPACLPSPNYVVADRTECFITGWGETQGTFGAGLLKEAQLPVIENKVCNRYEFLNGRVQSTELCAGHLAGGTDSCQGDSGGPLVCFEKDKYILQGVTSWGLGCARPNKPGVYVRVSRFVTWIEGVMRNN"}, "mini-plasmin (human)": {"target": "mini-plasmin (human) (UniProt P00747)", "sequence (P00747 462-580, chain 1 of 2)": "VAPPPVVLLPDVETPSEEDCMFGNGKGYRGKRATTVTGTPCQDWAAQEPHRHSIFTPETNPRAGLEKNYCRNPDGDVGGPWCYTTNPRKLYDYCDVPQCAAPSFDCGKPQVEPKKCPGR", "sequence (P00747 581-810, chain 2 of 2)": "as the sequence (P00747 581-810, chain 2 of 2) above"}, "micro-plasmin": {"target": "micro-plasmin (UniProt P00747)", "sequence (P00747 562-810 limits assumed)": "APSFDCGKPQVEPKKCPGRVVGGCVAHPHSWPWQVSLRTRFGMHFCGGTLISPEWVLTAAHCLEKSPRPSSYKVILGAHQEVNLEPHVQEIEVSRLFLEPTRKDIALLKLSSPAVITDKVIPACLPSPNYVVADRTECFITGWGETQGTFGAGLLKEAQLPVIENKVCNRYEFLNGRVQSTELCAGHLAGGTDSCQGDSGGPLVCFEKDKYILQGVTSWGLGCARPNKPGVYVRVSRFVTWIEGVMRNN"}}, "data": [{"binder": "B1", "values": [{"measurement": "inhibition rate", "setting": "plasmin (human)", "result": 650000, "unit": "M⁻¹ s⁻¹"}, {"measurement": "inhibition rate", "setting": "delta-plasmin (human)", "result": 760000, "unit": "M⁻¹ s⁻¹"}, {"measurement": "inhibition rate", "setting": "mini-plasmin (human)", "result": 750000, "unit": "M⁻¹ s⁻¹"}, {"measurement": "inhibition rate", "setting": "micro-plasmin", "result": 780000, "unit": "M⁻¹ s⁻¹"}]}, {"binder": "B2", "values": [{"measurement": "inhibition rate", "setting": "delta-plasmin (human)", "result": "1e+07", "unit": "M⁻¹ s⁻¹"}, {"measurement": "inhibition rate, fold against micro-plasmin or mini-plasmin", "setting": "delta-plasmin (human)", "result": 40, "unit": "fold"}, {"measurement": "rate of inhibition", "setting": "delta-plasmin (human)", "result": "1.1e+07", "unit": "M⁻¹ s⁻¹"}, {"measurement": "inhibition rate", "setting": "mini-plasmin (human)", "result": 240000, "unit": "M⁻¹ s⁻¹"}, {"measurement": "inhibition rate", "setting": "micro-plasmin", "result": 180000, "unit": "M⁻¹ s⁻¹"}, {"measurement": "inhibition rate (second of two separate experiments)", "setting": "micro-plasmin", "result": 310000, "unit": "M⁻¹ s⁻¹"}]}]}
